Test results taken from PMC4837482, “The complex binding mode of the peptide hormone H2 relaxin to its receptor RXFP1” (Nature Communications, 2016).
Changes are numbered by the printed parent chain.

Key:
Experiment in all cases: cAMP activity assay (pCRE β-galactosidase reporter), transfected HEK293T cells
Format in all cases: cell-based
RXFP1 G45W46-AA = target: T1, RXFP1 G45W46-AA (Homo sapiens, UniProt Q9HBX9, G67A/W68A)
T1 construct: transiently transfected human embryonic kidney (HEK) 293T cells expressing full-length RXFP1 and mutants; expressed in transfected cells; host or cells: HEK293T
T1 sequence (Q9HBX9 23-757 G67A/W68A limits assumed): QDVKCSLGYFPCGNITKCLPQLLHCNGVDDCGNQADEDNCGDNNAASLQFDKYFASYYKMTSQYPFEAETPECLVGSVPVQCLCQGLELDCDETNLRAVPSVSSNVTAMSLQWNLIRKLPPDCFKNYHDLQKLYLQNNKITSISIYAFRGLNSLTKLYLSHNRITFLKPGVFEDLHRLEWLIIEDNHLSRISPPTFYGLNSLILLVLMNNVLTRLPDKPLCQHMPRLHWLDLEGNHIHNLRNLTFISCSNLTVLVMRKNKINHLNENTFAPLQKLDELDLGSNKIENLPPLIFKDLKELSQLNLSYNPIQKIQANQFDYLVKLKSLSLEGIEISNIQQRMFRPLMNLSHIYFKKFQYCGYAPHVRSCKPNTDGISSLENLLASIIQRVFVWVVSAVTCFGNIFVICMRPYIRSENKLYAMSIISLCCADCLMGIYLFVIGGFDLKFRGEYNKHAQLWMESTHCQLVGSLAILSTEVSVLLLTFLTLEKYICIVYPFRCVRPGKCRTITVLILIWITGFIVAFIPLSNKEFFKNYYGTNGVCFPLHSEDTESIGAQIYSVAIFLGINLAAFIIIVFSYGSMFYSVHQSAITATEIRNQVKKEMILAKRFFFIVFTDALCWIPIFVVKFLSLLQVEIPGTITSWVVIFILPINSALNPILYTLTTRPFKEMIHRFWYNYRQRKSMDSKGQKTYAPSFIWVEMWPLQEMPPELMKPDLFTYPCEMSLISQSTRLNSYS
Procedure, shortened: (§1)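 HEK293T cells transfected with mutant RXFP1 and pCRE β-galactosidase reporter, stimulated with H2 relaxin in minimal media/1% DMSO. β-Galactosidase read with chlorophenol red-β-D-galactopyranoside at 570 nm; responses pooled from ≥3 triplicate experiments as % of 5 μM forskolin maximum.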

RXFP1 Y58A = target: T2, RXFP1 Y58A (Homo sapiens, UniProt Q9HBX9, Y80A); details: construct Y58A, ±s.e.m.
T2 construct: cells expressing full-length RXFP1 and mutants; expressed in transfected cells; host or cells: HEK293T
T2 sequence (Q9HBX9 23-757 Y80A limits assumed): T1 sequence (Q9HBX9 23-757 G67A/W68A limits assumed) with A45G, A46W, Y58A
Procedure, shortened: as §1

RXFP1 D42A = target: T3, RXFP1 D42A (Homo sapiens, UniProt Q9HBX9, D64A); details: construct D42A
T3 construct: transiently transfected human embryonic kidney (HEK) 293T cells expressing full-length RXFP1 and mutants; expressed in transfected cells; host or cells: HEK293T
T3 sequence (Q9HBX9 23-757 D64A limits assumed): T1 sequence (Q9HBX9 23-757 G67A/W68A limits assumed) with D42A, A45G, A46W
Procedure, shortened: as §1

For “H2 relaxin: two-chain 6-kDa peptide hormone structurally related to insulin; recombinant human gene-2 H2 relaxin provided by Corthera”, the “H2 relaxin-stimulated cAMP activity” value (RXFP1 G45W46-AA; G45A/W46A RXFP1) was “virtually unable to signal”, the “H2 relaxin pEC50” value (RXFP1 G45W46-AA; construct G45W46-AA, cAMP reporter) was <6 (3) and the “H2 relaxin pEC50” value (RXFP1 Y58A; cAMP reporter) was 10.88±0.09 (3). The “H2 relaxin Emax” value (RXFP1 Y58A; percentage of maximum response to 5 μM Forskolin) was 89.14±7.93 (3) % and the “H2 relaxin pEC50” value (RXFP1 D42A) was <6 (4).
